Experimental data from doi:10.1101/2020.07.29.226720 (bioRxiv, 2020).

Target: the molecule itself
Experiment: SEC

Row | Protein | stoichiometry N
1 | AthPEPCK1 Δ101 truncated mutant (enzyme, Arabidopsis thaliana, UniProt Q9T074 102-671, looked up) ESGPKVVRGDPAEKKTDGSTTPAYAHGQHHSIFSPATGAVSDSSLKFTHVLYNLSPAELYEQAIKYEKGSFITSNGALATLSGAKTGRAPRDKRVVRDATTEDELWWGKGSPNIEMDEHTFMVNRERAVDYLNSLEKVFVNDQYLNWDPENRIKVRIVSARAYHSLFMHNMCIRPTQEELESFGTPDFTIYNAGQFPCNRYTHYMTSSTSVDLNLARREMVILGTQYAGEMKKGLFSVMHYLMPKRRILSLHSGCNMGKDGDVALFFGLSGTGKTTLSTDHNRYLIGDDEHCWTETGVSNIEGGCYAKCVDLSREKEPDIWNAIKFGTVLENVVFDEHTREVDYSDKSVTENTRAAYPIEFIPNAKIPCVGPHPTNVILLACDAFGVLPPVSKLNLAQTMYHFISGYTALVAGTEDGIKEPTATFSACFGAAFIMLHPTKYAAMLAEKMKSQGATGWLVNTGWSGGSYGVGNRIKLAYTRKIIDAIHSGSLLKANYKKTEIFGFEIPTEIEGIPSEILDPVNSWSDKKAHKDTLVKLGGLFKKNFEVFANHKIGVDGKLTEEILAAGPIF | 6
2 | AthPEPCK1 Δ19 truncated mutant (enzyme, Arabidopsis thaliana, UniProt Q9T074 20-671, looked up) GPVMPKITTGAAKRGSGVCHDDSGPTVNATTIDELHSLQKKRSAPTTPINQNAAAAFAAVSEEERQKIQLQSISASLASLTRESGPKVVRGDPAEKKTDGSTTPAYAHGQHHSIFSPATGAVSDSSLKFTHVLYNLSPAELYEQAIKYEKGSFITSNGALATLSGAKTGRAPRDKRVVRDATTEDELWWGKGSPNIEMDEHTFMVNRERAVDYLNSLEKVFVNDQYLNWDPENRIKVRIVSARAYHSLFMHNMCIRPTQEELESFGTPDFTIYNAGQFPCNRYTHYMTSSTSVDLNLARREMVILGTQYAGEMKKGLFSVMHYLMPKRRILSLHSGCNMGKDGDVALFFGLSGTGKTTLSTDHNRYLIGDDEHCWTETGVSNIEGGCYAKCVDLSREKEPDIWNAIKFGTVLENVVFDEHTREVDYSDKSVTENTRAAYPIEFIPNAKIPCVGPHPTNVILLACDAFGVLPPVSKLNLAQTMYHFISGYTALVAGTEDGIKEPTATFSACFGAAFIMLHPTKYAAMLAEKMKSQGATGWLVNTGWSGGSYGVGNRIKLAYTRKIIDAIHSGSLLKANYKKTEIFGFEIPTEIEGIPSEILDPVNSWSDKKAHKDTLVKLGGLFKKNFEVFANHKIGVDGKLTEEILAAGPIF | 6
